Test results published in the supplement of paper PMC9112550, “Optimization of the antimicrobial peptide Bac7 by deep mutational scanning” (BMC Biology, 2022).

The sequences below were run on Escherichia coli TOP10 (assay: shrunken log2 fold change of peptide-encoding DNA abundance (4.5 h post-induction vs induction); higher = less antimicrobial activity (less host growth inhibition)). Settings: time post-induction: 4.5 h; library: site-saturation at positions 5, 18, 19, 20.
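Further: peptides expressed intracellularly from a pBAD plasmid library in pooled LB shake-flask culture, induced with 0.3% L-arabinose, DNA abundance read by NGS, three biological replicates, DESeq2 with apeglm shrinkage.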

Row | Sequence | shrunken log2 fold change
1 | RRIRHRPPRLPRPRPRPGMGPRP | 0.0516
2 | RRIRIRPPRLPRPRPRPYEDPRP | -0.00133
3 | RRIRIRPPRLPRPRPRPQHEPRP | -0.262
4 | RRIRSRPPRLPRPRPRPCRPPRP | -0.584
5 | RRIRDRPPRLPRPRPRPCNHPRP | -0.218
6 | RRIRIRPPRLPRPRPRPFQNPRP | -0.296
7 | RRIRKRPPRLPRPRPRPYTSPRP | -0.05
8 | RRIRGRPPRLPRPRPRPFGWPRP | 0.741
9 | RRIRLRPPRLPRPRPRPMYWPRP | -0.115
10 | RRIRYRPPRLPRPRPRPADPPRP | 0.035
11 | RRIRNRPPRLPRPRPRPTARPRP | 0.198
12 | RRIRTRPPRLPRPRPRPLKWPRP | -0.205
13 | RRIRTRPPRLPRPRPRPSYKPRP | -0.594
14 | RRIRTRPPRLPRPRPRPHGVPRP | -0.00162
15 | RRIRARPPRLPRPRPRPCVMPRP | -0.0813
16 | RRIRCRPPRLPRPRPRPAHQPRP | 0.133
17 | RRIRWRPPRLPRPRPRPWPGPRP | 0.217
18 | RRIRERPPRLPRPRPRPSDMPRP | -0.0552
19 | RRIRYRPPRLPRPRPRPLWCPRP | -0.125
20 | RRIRERPPRLPRPRPRPWAVPRP | -0.0984
21 | RRIRDRPPRLPRPRPRPGDEPRP | 0.0587
22 | RRIRTRPPRLPRPRPRPTNIPRP | -0.519
23 | RRIRRRPPRLPRPRPRPYDHPRP | -0.149
24 | RRIRNRPPRLPRPRPRPEGSPRP | -0.0385
25 | RRIRGRPPRLPRPRPRPARKPRP | 0.222

Row | Sequence | shrunken log2 fold change
26 | RRIRHRPPRLPRPRPRPHEIPRP | -0.0135
27 | RRIRDRPPRLPRPRPRPWCMPRP | -1
28 | RRIRGRPPRLPRPRPRPFHNPRP | -0.388
29 | RRIRHRPPRLPRPRPRPYEAPRP | -0.445
30 | RRIRVRPPRLPRPRPRPDTHPRP | -0.214
31 | RRIRWRPPRLPRPRPRPRDNPRP | 0.0559
32 | RRIRHRPPRLPRPRPRPGDPPRP | 0.219
33 | RRIRVRPPRLPRPRPRPSLEPRP | 0.163
34 | RRIRLRPPRLPRPRPRPKFHPRP | -0.174
35 | RRIRGRPPRLPRPRPRPGRLPRP | 0.706
36 | RRIRRRPPRLPRPRPRPWDIPRP | 0.0194
37 | RRIRFRPPRLPRPRPRPQVPPRP | -0.144
38 | RRIRFRPPRLPRPRPRPFMLPRP | -0.66
39 | RRIRWRPPRLPRPRPRPSLMPRP | 0.122
40 | RRIRIRPPRLPRPRPRPAFGPRP | 0.209
41 | RRIRSRPPRLPRPRPRPVQPPRP | 0.107
42 | RRIRWRPPRLPRPRPRPNAEPRP | 0.181
43 | RRIRHRPPRLPRPRPRPIIEPRP | 0.0811
44 | RRIRKRPPRLPRPRPRPNLRPRP | 0.211
45 | RRIRGRPPRLPRPRPRPYRTPRP | -0.108
46 | RRIRPRPPRLPRPRPRPCKTPRP | 0.106
47 | RRIRPRPPRLPRPRPRPDQTPRP | 0.0118
48 | RRIRNRPPRLPRPRPRPQLKPRP | -0.0663
49 | RRIRWRPPRLPRPRPRPPVEPRP | 0.392
50 | RRIRLRPPRLPRPRPRPTSFPRP | -0.0182

Row | Sequence | shrunken log2 fold change
51 | RRIRCRPPRLPRPRPRPRHNPRP | -0.374
52 | RRIRQRPPRLPRPRPRPDPIPRP | -0.0263
53 | RRIRIRPPRLPRPRPRPTTMPRP | -0.394
54 | RRIRKRPPRLPRPRPRPCLFPRP | 0.0241
55 | RRIRERPPRLPRPRPRPRQQPRP | 0.357
56 | RRIRMRPPRLPRPRPRPVKMPRP | -0.124
57 | RRIRSRPPRLPRPRPRPQQRPRP | 0.153
58 | RRIRARPPRLPRPRPRPPVTPRP | 0.354
59 | RRIRPRPPRLPRPRPRPPGGPRP | 0.968
60 | RRIRYRPPRLPRPRPRPWGVPRP | -0.242
61 | RRIRCRPPRLPRPRPRPLAPPRP | 0.268
62 | RRIRKRPPRLPRPRPRPQNLPRP | 0.0263
63 | RRIRSRPPRLPRPRPRPNRTPRP | -0.0602
64 | RRIRGRPPRLPRPRPRPIALPRP | 0.16
65 | RRIRARPPRLPRPRPRPWRGPRP | 0.39
66 | RRIRRRPPRLPRPRPRPCFKPRP | -0.236
67 | RRIRRRPPRLPRPRPRPNSTPRP | -0.0128
68 | RRIRSRPPRLPRPRPRPLNSPRP | -0.327
69 | RRIRARPPRLPRPRPRPLPEPRP | 0.542
70 | RRIRARPPRLPRPRPRPLGGPRP | 1.01
71 | RRIRPRPPRLPRPRPRPNEQPRP | 0.062
72 | RRIRDRPPRLPRPRPRPHWMPRP | 0.236
73 | RRIRDRPPRLPRPRPRPWVIPRP | -0.00136
74 | RRIRERPPRLPRPRPRPMYKPRP | -0.0299
75 | RRIRRRPPRLPRPRPRPAAHPRP | 0.361

Row | Sequence | shrunken log2 fold change
76 | RRIRKRPPRLPRPRPRPRIDPRP | -0.154
77 | RRIRSRPPRLPRPRPRPQKIPRP | -0.53
78 | RRIRVRPPRLPRPRPRPQVGPRP | 0.251
79 | RRIRCRPPRLPRPRPRPQCDPRP | -0.264
80 | RRIRGRPPRLPRPRPRPIAWPRP | 1.05
81 | RRIRLRPPRLPRPRPRPTFQPRP | -0.098
82 | RRIRVRPPRLPRPRPRPWFVPRP | -0.475
83 | RRIRNRPPRLPRPRPRPAQTPRP | -0.0137
84 | RRIRYRPPRLPRPRPRPGNAPRP | 0.0744
85 | RRIRDRPPRLPRPRPRPEIYPRP | 0.0907
86 | RRIRWRPPRLPRPRPRPDQSPRP | 0.0237
87 | RRIRLRPPRLPRPRPRPVTRPRP | 0.0329
88 | RRIRWRPPRLPRPRPRPQDGPRP | 0.0557
89 | RRIRVRPPRLPRPRPRPHNNPRP | -0.652
90 | RRIRCRPPRLPRPRPRPWQPPRP | 0.0636
91 | RRIRRRPPRLPRPRPRPRNCPRP | -0.0356
92 | RRIRSRPPRLPRPRPRPHMAPRP | -0.361
93 | RRIRCRPPRLPRPRPRPASLPRP | -0.234
94 | RRIRSRPPRLPRPRPRPRGWPRP | 0.624
95 | RRIRWRPPRLPRPRPRPELSPRP | 0.101
96 | RRIRERPPRLPRPRPRPWWHPRP | -0.523
97 | RRIRFRPPRLPRPRPRPHFCPRP | -1.02
98 | RRIRVRPPRLPRPRPRPYVKPRP | -0.354
99 | RRIRIRPPRLPRPRPRPLTVPRP | -0.114
100 | RRIRGRPPRLPRPRPRPYFQPRP | -0.161

Row | Sequence | shrunken log2 fold change
101 | RRIRNRPPRLPRPRPRPRGAPRP | 0.601
102 | RRIRQRPPRLPRPRPRPAYMPRP | -0.263
103 | RRIRCRPPRLPRPRPRPNTGPRP | -0.657
104 | RRIRWRPPRLPRPRPRPPENPRP | 0.0933
105 | RRIRARPPRLPRPRPRPQSTPRP | 0.0836
106 | RRIRLRPPRLPRPRPRPHMHPRP | -0.578
107 | RRIRERPPRLPRPRPRPIWKPRP | -0.644
108 | RRIRERPPRLPRPRPRPPCKPRP | -0.208
109 | RRIRYRPPRLPRPRPRPMGKPRP | -0.452
110 | RRIRARPPRLPRPRPRPQQVPRP | 0.0996
111 | RRIRTRPPRLPRPRPRPIMGPRP | -0.0135
112 | RRIRCRPPRLPRPRPRPWCIPRP | -0.308
113 | RRIRPRPPRLPRPRPRPVGNPRP | -0.0903
114 | RRIRERPPRLPRPRPRPLEDPRP | -0.157
115 | RRIRYRPPRLPRPRPRPRATPRP | -0.0516
116 | RRIRHRPPRLPRPRPRPAMHPRP | 0.0521
117 | RRIRRRPPRLPRPRPRPCEVPRP | -0.0207
118 | RRIRPRPPRLPRPRPRPSVKPRP | -0.277
119 | RRIRWRPPRLPRPRPRPYNSPRP | -0.178
120 | RRIRYRPPRLPRPRPRPRSGPRP | -0.0667
121 | RRIRARPPRLPRPRPRPDLHPRP | 0.474
122 | RRIRPRPPRLPRPRPRPINDPRP | -0.178
123 | RRIRPRPPRLPRPRPRPQYRPRP | -0.105
124 | RRIRERPPRLPRPRPRPELSPRP | 0.314
125 | RRIRERPPRLPRPRPRPKCGPRP | 0.0971

Row | Sequence | shrunken log2 fold change
126 | RRIRERPPRLPRPRPRPFIEPRP | -0.59
127 | RRIRKRPPRLPRPRPRPLDHPRP | 0.118
128 | RRIRRRPPRLPRPRPRPCKNPRP | 0.0778
129 | RRIRWRPPRLPRPRPRPTPRPRP | 0.851
130 | RRIRQRPPRLPRPRPRPTNHPRP | -0.552
131 | RRIRKRPPRLPRPRPRPTELPRP | 0.876
132 | RRIRERPPRLPRPRPRPNSAPRP | -0.503
133 | RRIRVRPPRLPRPRPRPTPGPRP | 0.258
134 | RRIRARPPRLPRPRPRPHTTPRP | -0.481
135 | RRIRPRPPRLPRPRPRPIACPRP | 0.0852
136 | RRIRIRPPRLPRPRPRPDYIPRP | -0.183
137 | RRIRQRPPRLPRPRPRPNLTPRP | -0.432
138 | RRIRTRPPRLPRPRPRPGFNPRP | -0.234
139 | RRIRCRPPRLPRPRPRPISAPRP | -0.142
140 | RRIRGRPPRLPRPRPRPQCWPRP | 0.623
141 | RRIRQRPPRLPRPRPRPGDPPRP | 0.0572
142 | RRIRMRPPRLPRPRPRPWVWPRP | 0.169
143 | RRIRGRPPRLPRPRPRPWSYPRP | -0.157
144 | RRIRMRPPRLPRPRPRPISDPRP | 0.0757
145 | RRIRGRPPRLPRPRPRPTGPPRP | 0.692
146 | RRIRIRPPRLPRPRPRPEYEPRP | -0.0111
147 | RRIRTRPPRLPRPRPRPDRYPRP | 0.04
148 | RRIRERPPRLPRPRPRPISFPRP | -0.441
149 | RRIRIRPPRLPRPRPRPLAMPRP | -0.159
150 | RRIRERPPRLPRPRPRPWHIPRP | -0.169
